Reference: PMC6736767
Where two headings read alike, the source gives them in different places.

Legend:
[1] = biological target: T1, BpuR (Borrelia burgdorferi, UniProt O51076 1-122); test: EMSA
T1 sequence: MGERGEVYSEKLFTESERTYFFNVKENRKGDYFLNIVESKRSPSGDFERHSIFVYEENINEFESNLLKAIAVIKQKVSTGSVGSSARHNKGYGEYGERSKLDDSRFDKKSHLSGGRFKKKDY

[2] = biological target: T1, BpuR; test: EMSA; remark: listed apart in the source

B1: sodA1 (ssRNA)
RNA: AAUGAGCCUUGUUAUUGUGGAAGUGGGAAGAAAUAUAAAAAUUGUCAUGGCAAAAGUUA
[1]
  binding result: binds

B2: bpuR RNA (ssRNA)
RNA: ACGUUAAAUGUAGUCAAGUACAAAAACUUGUGUGGAGGAAAUUGAUGGGAGAGAGAGGGGAAGUAUACU
[1]
  binding result: binds

B3: sodA2 (ssRNA)
RNA: UCAUGGCAAAAGUUAAAACAGGAGGUUUUUAUGUUUAAGCUGCCAGAACUUGGUUAUGAU
[2]
  binding result: no binding
